Patent US20050182242A1, “Global analysis of protein activities using proteome chips” (priority 2001, published 2005)

How the values were obtained:
[1] = test system: PI(3,4)P2 liposomes; experiment: Yeast proteome chip probed with PI(3,4)P2 liposomes; settings: liposome binding signal on yeast proteome chip, Cy3-streptavidin detection
[2] = test system: phosphatidylcholine (PC) liposomes; experiment: Yeast proteome chip probed with PC liposomes; settings: liposome binding signal on yeast proteome chip, Cy3-streptavidin detection
Method in brief: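 Binding detected by fluorescent streptavidin (Cy3 or Cy5, >30 min in the dark at RT) recognizing biotin-DHPE (1% w/w) in PC liposomes, which carried 5% (w/w) of the named phosphoinositide unless PC-only. Liposomes, made by sonication in TBS, were applied to blocked chips for 1 h at RT, then washed in PBS.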

[3] = test system: PI(3,4,5)P3 liposomes; experiment: Yeast proteome chip probed with PI(3,4,5)P3 liposomes; settings: liposome binding signal on yeast proteome chip, Cy3-streptavidin detection
[4] = test system: PI(3)P liposomes; experiment: Yeast proteome chip probed with PI(3)P liposomes; settings: liposome binding signal on yeast proteome chip, Cy3-streptavidin detection
[5] = test system: PI(4)P liposomes; experiment: Yeast proteome chip probed with PI(4)P liposomes; settings: liposome binding signal on yeast proteome chip, Cy3-streptavidin detection
[6] = test system: PI(4,5)P2 liposomes; experiment: Yeast proteome chip probed with PI(4,5)P2 liposomes; settings: liposome binding signal on yeast proteome chip, Cy3-streptavidin detection
[7] = test system: total yeast genomic DNA; experiment: Yeast proteome chip probed with labeled genomic DNA; type: binding; settings: Cy3-labeled genomic DNA, visual inspection
Source text: Protein-DNA and protein-RNA interactions are important for many fundamental biological functions such as transcription regulation, chromosome segregation and maintenance, and RNA transport and processing (Williamson, 2000, Nat. Struct. Biol. 7(10):834-7). To explore the possibility of using a proteome chip to identify proteins that bind to DNA or RNA molecules, total yeast genomic DNA was labeled using Cy3-CTP and Klenow fragment, and polyA^+ was labeled using a biotinylated psoralen-derivative (31). Each probe was incubated with a different proteome chip (FIG. 3A).
The protein-nucleic acid interaction was assayed as follows. The nucleic acid robes were labeled as described by Winzeler et al. (1999, Science 285:901). Blocked proteome chips were washed three to five times in PBS buffer, and the extra liquid on the glass surface was removed by tapping the slides vertically on a KIMWIPE™. 200 μl of labeled nuclei acid probe ([…] poly(dC/dG); 100-300 mM NaCl; 50-300 mM HEPES, pH 7.0-8.5; 10 mM MgCl2) was added to the proteome chip and immediately covered by a hydrophobic plastic cover slip (GRACE BIO-LABS™, USA). After trapped air bubbles were removed, the chip was incubated in a humidity chamber in the dark at room temperature (“RT”) for one hour. To remove the cover slip, the chip was immersed into large volume of PBS buffer(>50 ml), so that the slip would float away. The chip was then moved to a second PBS bath (>50 ml) and washed 3×5 min with shaking in the dark at RT. To completely remove the liquid on the chip, the chip was spun to dryness at 1500-2000 rpm for 5-10 min at RT.

Molecule | PI(3, 4)P2 [1] | PC [2] | PI(3, 4, 5)P3 [3] | PI(3)P [4] | PI(4)P [5] | PI(4, 5)P2 [6] | binding of genomic DNA probe [7]
TFB3: yeast GST-HisX6 fusion protein on proteome chip (protein, UniProt Q03290 1-321, looked up, GST-His6 tag, yeast GST-HisX6 fusion protein on proteome chip) RNA polymerase II …: MLMDEYEENKDMCPICKTDRYLSPDVKFLVNPECYHRICESCVDRIFSLGPAQCPYKGCDKILRKNKFKTQIFDDVEVEKEVDIRKRVFNVFNKTIDDFNGDLVEYNKYLEEVEDIIYKLDHGIDVAKTEEKLRTYEELNKQLIMNNLERSRTEIESFEQRQKFEKEMKLKKRLLERQIEEEERMNKEWTKKEIVNRLSTTTQDINETIEGVKNTVKLKKSSARRKLEELNRVLKNNPYFNSNVNVQNSRLKDAVPFTPFNGDREAHPRFTLKGSVYNDPFIKDLEHRKEFIASGFNTNYAYERVLTEAFMGLGCVISEEL | 47.72 | 37.86 | 27.45 | 71.00 | 43.98 | 37.23 | –
Cdc1p: yeast DNA-repair protein (protein, UniProt P40986 1-491, looked up) Cell division control protein …: MVYRNRSKSVLSTHSKKSDDKAHYKSRSKKKSKSRSKKRLRIYWRYISIVWILWLGLISYYESVVVKRAMKKCQWSTWEDWPEGAESHRVGLFADPQIMDEYSYPGRPQIVNYFTRVIVDHYHRRNWKYVQYYLDPDSNFFLGDLFDGGRNWDDKQWIKEYTRFNQIFPKKPLRRTVMSLPGNHDIGFGDTVVESSLQRFSSYFGETSSSLDAGNHTFVLLDTISLSDKTNPNVSRVPRQFLDNFAMGSHPLPRILLTHVPLWRDPEQQTCGQLRESKEPFPIQKGHQYQTVIENDISQEILTKIQPEILFSGDDHDHCQISHSYPFQGKTKNAQEITVKSCAMNMGISRPAIQLLSLYNPSDLTMVNAGGEYASKTYQTELCYMPDPYKAIRMYLWGLLFSAAFIAYMHFFPKSFNNRVATIMNRVFTRPDGNTSDLPLPTSISKSKSKKSLTHSKYAVNDTRSIKQFLVNAIVLFVSVMPIFIYFYTVV | – | – | – | – | – | – | identified
PCL6: yeast GST-HisX6 fusion protein on proteome chip (protein, UniProt P40038 1-420, looked up, GST-His6 fusion tag, yeast GST-HisX6 fusion protein on proteome chip) PHO85 cyclin-6: MSIKGDSPSSTNASSSPKSTYSIQSDDKANLGSGNVDIRTDNSQQDSNNRRDIVVVTRVASEETLESQSSTSSMGIRPESSFNYEDASNQARVEMNNRVHGSNMNTINKYYPVRFPKNNERQLSDTNNLNEKVQGTHTVQSSTQEDKILDGDTSNSQVTPSLNIAEFPTDKLLKMLTALLTKIIKSNDRTAATNPSLTQEIENGRCLALSDNEKKYLSPVLGFRGKHVPQIGLDQYFQRIQKYCPTTNDVFLSLLVYFDRISKRCNSVTTTPKTNTAKHESPSNESSLDKANRGADKMSACNSNENNENDDSDDENTGVQRDSRAHPQMFVMDSHNIHRLIIAGITVSTKFLSDFFYSNSRYSRVGGISLQELNHLELQFLVLCDFELLISVNELQRYADLLYRFWNNAKAQSQALVTGM | 26.84 | 31.70 | 26.89 | 9.00 | 8.06 | 3.70 | –
APA2: yeast GST-HisX6 fusion protein on proteome chip (protein, UniProt P22108 1-325, looked up, GST-His6 fusion tag, yeast GST-HisX6 fusion protein on proteome chip) Diadenosine …: MIEENLKQKIHDKFVAAKKNGHLKVTHAESKKLKDPQTTTQYWVTFAPSLALKPDANKNSDSKAEDPFANPDEELVVTEDLNGDGEYKLLLNKFPVVPEHSLLVTSEFKDQRSALTPSDLMTAYNVLCSLQGDKDDDVTCERYLVFYNCGPHSGSSQDHKHLQIMQMPEKFIPFQDVLCNGKDHFLPTFNAEPLQDDKVSFAHFVLPLPESSDQVDEDLLAMCYVSLMQRALTFFQDWTNESPELTKSYNVLLTKKWICVVPRSHAKSGPPLMLNINSTGYCGMILVKDREKLENLTEDPHLVDKSLLQCGFPNTAGQKPTEYHY | 31.40 | 42.26 | 40.05 | 22.50 | 43.98 | 34.84 | –
GPA2: yeast GST-HisX6 fusion protein on proteome chip (protein, UniProt P10823 2-449, looked up, GST-His6 tag, yeast GST-HisX6 fusion protein on proteome chip) Guanine nucleotide-binding …: GLCASSEKNGSTPDTQTASAGSDNVGKAKVPPKQEPQKTVRTVNTANQQEKQQQRQQQPSPHNVKDRKEQNGSINNAISPTATANTSGSQQINIDSALRDRSSNVAAQPSLSDASSGSNDKELKVLLLGAGESGKSTVLQQLKILHQNGFSEQEIKEYIPLIYQNLLEIGRNLIQARTRFNVNLEPECELTQQDLSRTMSYEMPNNYTGQFPEDIAGVISTLWALPSTQDLVNGPNASKFYLMDSTPYFMENFTRITSPNYRPTQQDILRSRQMTSGIFDTVIDMGSDIKMHIYDVGGQRSERKKWIHCFDNVTLVIFCVSLSEYDQTLMEDKNQNRFQESLVLFDNIVNSRWFARTSVVLFLNKIDLFAEKLSKVPMENYFPDYTGGSDINKAAKYILWRFVQLNRANLSIYPHVTQATDTSNIRLVFAAIKETILENTLKDSGVLQ | 119.93 | 39.33 | 13.05 | −50.50 | 87.31 | 44.85 | –
xrs2p: yeast DNA-repair protein (protein, UniProt P33301 1-854, looked up) DNA repair protein XRS2: MWVVRYQNTLEDGSISFISCCLQAFKTYSIGRSSKNPLIIKNDKSISRQHITFKWEINNSSDLKHSSLCLVNKGKLTSLNKKFMKVGETFTINASDVLKSTIIELGTTPIRIEFEWINEVWNIPPHLTQFRTMLSEYGISTEISINDIPANLMISDYPKSEDNSIRELYALVSTIPMKKSRFLMELCNTLLPTSKTNLKFDEMWNDMISNPEYNVFDFDPNILLSKFMRLNNIRVLTTIKSEPRLSSLLRTFNINLFAFDNIDSLYKYVDSLEASTEYLILTTTDKKENGKILCTIKTMLTSIIDGTLSAVINMKGASSRTLDNGKFDQISEGMSTILKTSRAPEVEASPVVSKKRKLNRRRVLPLDSLDFFAGGLSTKTLSENRSLTDAKRLNCGAESKTVISSPNIAEADEKHAPFLQNALKPTEDIGKKSGHSSPGAIIVSSPNLGTVNTSEDSLDKSLQSHKLPQPSLPEVAGIGSQTISSNSADYETAAVNSMDDAEVTKNFRVNHHQNIEQPSKNIRKLSNYSREISSPLQENCKSPVKELSIKEKSGTPHAFVEAIQETKNREVKRVKSTIVELKDEELSEEAINQLKNLAIVEPSNNLLRKSFDSEGNKTSRTTEKWENSLMEPEWHKRKNFKTFVKVRPKSKAHKEEGKNNTQSSDFIRNAAFLITRNYVPLKKYSKKDTTTKWGTEENEDMFALTEMERFGSNTFMSDNINSNTIQKRSQALNRFTNEDSSNEGEEDSFSFSRCSGTAASVQPLKNKIFITDEDDLGDIDDKSDRLNHRENNRNLFVVKEMNLRPNLSEECSKQSRHSRSATSRSRGSFGASNNGDGDDDDDDGPKFTFKRRKG | – | – | – | – | – | – | identified
VMA13: yeast GST-HisX6 fusion protein on proteome chip (protein, UniProt P41807 2-478, looked up, GST-His6 tag, yeast GST-HisX6 fusion protein on proteome chip) V-type proton ATPase subunit H: GATKILMDSTHFNEIRSIIRSRSVAWDALARSEELSEIDASTAKALESILVKKNIGDGLSSSNNAHSGFKVNGKTLIPLIHLLSTSDNEDCKKSVQNLIAELLSSDKYGDDTVKFFQEDPKQLEQLFDVSLKGDFQTVLISGFNVVSLLVQNGLHNVKLVEKLLKNNNLINILQNIEQMDTCYVCIRLLQELAVIPEYRDVIWLHEKKFMPTLFKILQRATDSQLATRIVATNSNHLGIQLQYHSLLLIWLLTFNPVFANELVQKYLSDFLDLLKLVKITIKEKVSRLCISIILQCCSTRVKQHKKVIKQLLLLGNALPTVQSLSERKYSDEELRQDISNLKEILENEYQELTSFDEYVAELDSKLLCWSPPHVDNGFWSDNIDEFKKDNYKIFRQLIELLQAKVRNGDVNAKQEKIIIQVALNDITHVVELLPESIDVLDKTGGKADIMELLNHSDSRVKYEALKATQAIIGYTFK | 44.27 | 45.78 | 28.12 | 11.50 | 16.55 | 34.40 | –
Rad51p: yeast DNA-repair protein (protein, UniProt P25454 1-400, looked up) DNA repair protein RAD51: MSQVQEQHISESQLQYGNGSLMSTVPADLSQSVVDGNGNGSSEDIEATNGSGDGGGLQEQAEAQGEMEDEAYDEAALGSFVPIEKLQVNGITMADVKKLRESGLHTAEAVAYAPRKDLLEIKGISEAKADKLLNEAARLVPMGFVTAADFHMRRSELICLTTGSKNLDTLLGGGVETGSITELFGEFRTGKSQLCHTLAVTCQIPLDIGGGEGKCLYIDTEGTFRPVRLVSIAQRFGLDPDDALNNVAYARAYNADHQLRLLDAAAQMMSESRFSLIVVDSVMALYRTDFSGRGELSARQMHLAKFMRALQRLADQFGVAVVVTNQVVAQVDGGMAFNPDPKKPIGGNIMAHSSTTRLGFKKGKGCQRLCKVVDSPCLPEAECVFAIYEDGVGDPREEDE | – | – | – | – | – | – | identified
